Laboratory results taken from the supplement of paper PMC7125110.
± gives the standard error. This sample holds only a part of the variants without activity.

B1: glmS ribozyme (parent)
chain: AUAAAAGCGCCAGAACUACAGAAAUGUAGUUGACGAGGAGGAGGUUUAUCGAAUUUUCGGCGGAUGCCUCCAAA

Legend:
Conditions in all cases: with glucosamine-6-phosphate
glucosamine-6-phosphate [1] = variants of: B1; experiment: self-cleavage kobs at 40 uM GlcN6P; higher = faster cleavage; RNA array
Summary of the method: (§1)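 Tiles of sequenced MiSeq chips were imaged over ~14 h at 37 °C. On them, barcoded ribozyme variants had been transcribed in situ by E. coli RNA polymerase and were tracked via a hybridised Cy3 probe while glucosamine-6-phosphate (40 μM to 10 mM) in HEPES/KCl/Mg(OAc)2 buffer flowed in. Per-tile medians, normalised to baseline and to non-cleaving reference variants, were fit to one- or two-exponential decays for kobs, and weighted Michaelis–Menten fits gave kcat and KM.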

glucosamine-6-phosphate [2] = variants of: B1; experiment: self-cleavage kobs at 160 uM GlcN6P; higher = faster cleavage; RNA array
Summary of the method: as §1

glucosamine-6-phosphate [3] = variants of: B1; experiment: self-cleavage kobs at 640 uM GlcN6P; higher = faster cleavage; RNA array
Summary of the method: as §1

glucosamine-6-phosphate [4] = variants of: B1; experiment: self-cleavage kobs at 2500 uM GlcN6P; higher = faster cleavage; RNA array
Summary of the method: as §1

glucosamine-6-phosphate [5] = variants of: B1; experiment: self-cleavage kobs at 10000 uM GlcN6P; higher = faster cleavage; RNA array
Summary of the method: as §1

Variant | self-cleavage kobs at 40 uM GlcN6P (glucosamine-6-phosphate [1]) [s⁻¹] | self-cleavage kobs at 160 uM GlcN6P (glucosamine-6-phosphate [2]) [s⁻¹] | self-cleavage kobs at 640 uM GlcN6P (glucosamine-6-phosphate [3]) [s⁻¹] | self-cleavage kobs at 2500 uM GlcN6P (glucosamine-6-phosphate [4]) [s⁻¹] | self-cleavage kobs at 10000 uM GlcN6P (glucosamine-6-phosphate [5]) [s⁻¹]
U47C A53G | 0.000125 ± 2.2e-05 | 0.000176 ± 5.7e-05 | 0.00114 ± 0.00018 | 0.00477 ± 0.0011 | 0.00419 ± 0.00092
A39U G43A C67G | 0.000153 ± 4.5e-05 | 9.45e-05 ± 3.1e-05 | 0.000465 ± 0.00019 | 0.000131 ± 6.2e-05 | 0.00313 ± 0.00085
A6U G13C A15U | < 1e-05 |  |  |  | < 1e-05
G38C A48U U65A | < 1e-05 |  |  |  | 
C8A G43U | < 1e-05 |  |  | < 1e-05 | < 1e-05
A6C G40C | < 1e-05 |  | < 1e-05 | < 1e-05 | 
C11G G60U | < 1e-05 | < 1e-05 | < 1e-05 |  | < 1e-05
C8U C58U C67U U69C | 0.00084 ± 0.00041 |  |  |  | 0.000669 ± 0.00018
A36G U45C U56A | < 1e-05 |  |  |  | 
G7A A12G U47A | < 1e-05 |  |  | < 1e-05 | 
A42G U56G | 0.000474 ± 5.8e-05 | 0.00171 ± 0.00035 | 0.00411 ± 0.00062 | 0.0067 ± 0.0013 | 0.0334 ± 0.0059
U45G G62A C70G C71G | < 1e-05 |  |  |  | 
G13U C50A | < 1e-05 |  |  |  | 
G60A A64U | < 1e-05 |  | < 1e-05 | < 1e-05 | 
G32A A36C A42G C70G | < 1e-05 |  |  |  | < 1e-05
A6U G35U | < 1e-05 | < 1e-05 | < 1e-05 | < 1e-05 | < 1e-05
A15G C50A A64G | < 1e-05 |  |  |  | 
G38U U45G C67U | < 1e-05 |  |  |  | < 1e-05
C50G C68A | 7.16e-05 ± 9.2e-06 | 0.000228 ± 3.1e-05 | 0.000137 ± 2.4e-05 | 0.000116 ± 2.1e-05 | 7.83e-05 ± 8.2e-06
A6C C8A | < 1e-05 | < 1e-05 | < 1e-05 | < 1e-05 | < 1e-05
C34G G37U G38C U47G U56C | < 1e-05 |  |  |  | < 1e-05
A14C C71U | 0.000147 ± 1.3e-05 | 0.000353 ± 3.7e-05 | 0.000938 ± 9.2e-05 | 0.00483 ± 0.00086 | 0.00794 ± 0.00094
C16U A39C C68A | < 1e-05 |  |  |  | < 1e-05

Variant | self-cleavage kobs at 40 uM GlcN6P (glucosamine-6-phosphate [1]) [s⁻¹] | self-cleavage kobs at 160 uM GlcN6P (glucosamine-6-phosphate [2]) [s⁻¹] | self-cleavage kobs at 640 uM GlcN6P (glucosamine-6-phosphate [3]) [s⁻¹] | self-cleavage kobs at 2500 uM GlcN6P (glucosamine-6-phosphate [4]) [s⁻¹] | self-cleavage kobs at 10000 uM GlcN6P (glucosamine-6-phosphate [5]) [s⁻¹]
G29A G43A | < 1e-05 | < 1e-05 | < 1e-05 | < 1e-05 | 
G40U G62C | < 1e-05 | < 1e-05 | < 1e-05 |  | < 1e-05
G29U G44C U46A | < 1e-05 |  |  |  | 
U31C G60U | < 1e-05 | < 1e-05 |  |  | < 1e-05
G38U U57G C68A U69A | 6.8e-05 ± 3e-05 |  |  |  | 5.25e-05 ± 2e-05
C8A U57A G63A | < 1e-05 |  |  | < 1e-05 | 
C34G A64C U65A | < 1e-05 |  |  |  | 
G13U C50G C61G | 8.16e-05 ± 1.3e-05 |  |  |  | 0.000116 ± 1.9e-05
G9C G13U | < 1e-05 | < 1e-05 | < 1e-05 | < 1e-05 | < 1e-05
A12G C50U G59U G60A | < 1e-05 |  |  |  | < 1e-05
A15G U31G U69C | 4.45e-05 ± 1.7e-05 |  |  |  | 
C34U C50G | 5.12e-05 ± 1.3e-05 | 0.000184 ± 3.2e-05 | 0.000831 ± 0.00035 | 5.23e-05 ± 2.2e-05 | 
G9A C11A | < 1e-05 | < 1e-05 |  |  | 
G37U C71U | < 1e-05 |  | < 1e-05 |  | 
U49C G62C | < 1e-05 |  | < 1e-05 | < 1e-05 | 
A6G C8U U54G C68G | 0.000149 ± 5.2e-05 |  | 0.000705 ± 0.00028 |  | 7.88e-05 ± 2.2e-05
C11G G44U A48C C50A G59U G62C | < 1e-05 |  |  |  | < 1e-05
A6G G62C | < 1e-05 | < 1e-05 | < 1e-05 | < 1e-05 | < 1e-05
A14U A33C G35C U55C | < 1e-05 |  |  |  | < 1e-05
G32C G37C C58U | < 1e-05 |  |  |  | 
C34A U65A | < 1e-05 |  |  | < 1e-05 | < 1e-05
G9A G40C | < 1e-05 | < 1e-05 | < 1e-05 |  | 
A33U A42U U65G | < 1e-05 |  |  |  | < 1e-05
